The values that follow come from patent publication US20250281631A1 (SICHUAN KELUN BIOTECH BIOPHARMACEUTICAL, published 2025).

In assay [1] the target is T1, human epidermal growth factor receptor 3 (HER3) (human, UniProt P21860 20-1342).
T1 construct: whole, on cells; also called ErbB3; Erbb3
Description: flow cytometry on A431 cells. As for the experimental part:
(§1) The affinity of anti-human HER3 ADC to MDA-MB-453, NCI-H358, KPL-4, and A431 cells was detected by flow cytometry (Beckman, model Cytoflex).
(§2) Adherent MDA-MB-453, NCI-H358, KPL-4, A431 cells were digested with Tryple (manufacturer: Gibco) solution, counted, and an appropriate amount of the cells were taken, washed twice with 1×PBS, resuspended in 1% BSA in PBS solution, and then transferred to a 96-well sharp-bottom plate, 50 μl per well; candidate antibodies and drug conjugates thereof were diluted with 1% BSA in PBS solution by 3-fold or 2.5-fold serial dilution starting from 5 μg/mL, and then 50 μl of the diluted antibody or antibody-drug conjugate was added to the sharp-bottom plate containing the cells, and incubation was carried out at 4° C. for 40 minutes; the cells were washed twice with PBS, then added with 50 μl of diluted secondary antibody to each well, mixed, and incubated at 4° C. for 30 minutes; the cells were washed with PBS twice, then resuspended in 400 μl of PBS and detected by flow cytometry. Data processing: the average fluorescence signal values were exported, and then input into GraphPad Prism 6 software to calculate EC50.
Background: A flow cytometer gives signals particle by particle.

The target in assay [2] is T1, human epidermal growth factor receptor …. Description: flow cytometry on KPL-4 cells. On the procedure: as §1, §2
For assay [3] the target is unchanged. The experiment in a line: flow cytometry on NCI-H358 cells. On the procedure: as §1, §2
For assay [4] the target is unchanged. Description: cell-based or functional assay.
Assay [5] has the same target. The experiment in a line: flow cytometry on MDA-MB-453 cells. As for the experimental part: as §1, §2
The target is the same in assay [6]. The experiment in a line: flow cytometry on MDA-MB-453 cells (second experiment, dilution from 15 ug/mL). As for the experimental part:
The affinity of anti-human HER3 ADC to MDA-MB-453 cells was detected by flow cytometry (Beckman, model Cytoflex).
Adherent MDA-MB-453 cells were digested with Tryple (manufacturer: Gibco) solution, counted, and an appropriate amount of the cells were taken, washed twice with 1×PBS, resuspended in 1% BSA solution, and then transferred to a 96-well sharp-bottom plate, 50 μl per well; candidate antibodies and drug conjugates thereof were diluted with 1% BSA by 3-fold serial dilution starting from 15 μg/mL, and then 50 μl of the diluted antibody or antibody-drug conjugate was added to the sharp-bottom plate containing the cells, and incubation was carried out at 4° C. for 40 minutes; the cells were washed twice with PBS, then added with 50 μl of diluted secondary antibody to each well, mixed, and incubated at 4° C. for 30 minutes; the cells were washed with PBS twice, then resuspended in 200 μl of PBS and detected by flow cytometry. Data processing: the average fluorescence signal values were exported, and then input into GraphPad Prism 6 software to calculate EC50.

For orientation: EC50 means the midpoint of the concentration-response curve.

B1: ADC 100H7-A-07-A (antibody, human IgG1, kappa, V domains shown)
VH: EVQLVESGGGVVLPGRSLRLSCAASGFTFSRNAMHWVRQAPGKGLEWVAVIWHDGSNKYYGDSVKGRFTISRDNSKNTLYLQMDSLTAEDTAVYYCARDRGASDFRGQGTLVTVSS
VL: DIQMTQSPSTLSASVGDRVTITCRASQSINNWLAWYQQKPEKAPKLLIYKASSLESGVPSRFSGSGSGTEFTLTISSLQPDDFATYYCQQYNSYSLTFGGGTKVEIKR
modifications: drug-linker A-07-A on a cysteine sulfhydryl group; LC-DAR1 ratio 1.000; drug-linker A-07-A on cysteine sulfhydryl groups after TCEP reduction; mainly 3 per heavy chain (HC-DAR3 ratio 0.989)
In the case of B1, the results for the EC50 in assay [1], in assay [2] and in assay [3] were 0.266 µg/mL, 0.274 µg/mL and 0.427 µg/mL, respectively.

B2: ADC 22B6-A-01 (antibody, human IgG1, kappa, V domains shown)
VH: EVHLVESGGGVVQPGRSLRLSCATSGFTFRSYGMHWVRQAPGKGLEWVAVIWYDGSNKYYADSVKGRFTISRDISKNTLYLQMNSLTAEDTAVYYCARYYYDSNGYYDAFDIWGQGTMVTVSS
VL: DIQLTQSPSFLSASVGDRVTITCRASQGISNYLAWYQQKPGKAPKLLIFAASTLQSGVPSRFSGSGSGAEFTLTISSLEPEDFATYYCQQLNSYPITFGQGTRLEIKR
modifications: drug-linker A-01 on a cysteine sulfhydryl group; LC-DAR1 ratio 0.990; drug-linker A-01 on cysteine sulfhydryl groups after TCEP reduction; mainly 3 per heavy chain (HC-DAR3 ratio 0.981)
As to B2, the EC50 in assay [1] is 0.0307 µg/mL; in assay [2], 0.0387 µg/mL; in assay [3], 0.0445 µg/mL. Moreover, the “IC50 (nM), in vitro cytotoxicity (CCK8, 6 days) on HEK293T-hHER3 cells” value in assay [4] turned out to be 0.0014 nM.

B3: 22B6D2-hIgG1 (antibody, V domains shown)
VH: B2 VH
VL: B2 VL
Take B3: the EC50 in assay [5] amounted to 0.0392 µg/mL; in assay [6] it was 0.0854 µg/mL.

B4: ADC 22B6-A-07-A-1 (antibody, human IgG1, kappa, V domains shown)
VH: B2 VH
VL: B2 VL
modifications: drug-linker A-07-A on a cysteine sulfhydryl group; mainly 1 per light chain (LC-DAR1 ratio 0.998); drug-linker A-07-A on cysteine sulfhydryl groups after TCEP reduction; mainly 3 per heavy chain (HC-DAR3 ratio 0.966)
In the case of B4, the EC50 in assay [1] amounted to 0.0284 µg/mL; in assay [5], 0.056 µg/mL; in assay [2], 0.0325 µg/mL; in assay [3] it was 0.0329 µg/mL; in assay [6], 0.147 µg/mL. Also, the “IC50 (nM), in vitro cytotoxicity (CCK8, 6 days) on HCC1569 cells” value in assay [4] came to 15.6 nM. For the same molecule, the “IC50 (nM), in vitro cytotoxicity (CCK8, 6 days) on HEK293T-hHER3 cells” value in assay [4] amounted to 0.0038 nM. Moreover, the “IC50 (nM), in vitro cytotoxicity (CCK8, 6 days) on MDA-MB-453 cells” value in assay [4] was 19 nM.

B5: ADC 22B6-B-04-02 (antibody, human IgG1, kappa, V domains shown)
VH: B2 VH
VL: B2 VL
modifications: drug-linker B-04 on cysteine sulfhydryl groups after TCEP reduction (overall DAR 6.87; split between the chains not given)
notes: Antibody-drug conjugate of 22B6D2-hIgG1 with drug-linker B-04; also called 22B6-B-04-2
With B5, the EC50 in assay [6] is 0.195 µg/mL.

B6: ADC 22B6-B-01 (antibody, human IgG1, kappa, V domains shown)
VH: B2 VH
VL: B2 VL
modifications: drug-linker B-01 on a cysteine sulfhydryl group; LC-DAR1 ratio 0.999; drug-linker B-01 on cysteine sulfhydryl groups after TCEP reduction; mainly 3 per heavy chain (HC-DAR3 ratio 0.933)
On to B6, for which the EC50 in assay [1] was found to be 0.0328 µg/mL; in assay [2] it was 0.0519 µg/mL; in assay [3] it was 0.0298 µg/mL.

B7: ADC 47A3-A-07-A (antibody, human IgG1, kappa, V domains shown)
VH: EVQLQESGPGLVKPSQTLSLTCAISGDSVSSSQSTWNWIRQSPSRGLEWLGRTFYRSRWYNDYALSMKSRITINPDTSKNQFSLQLNPVTPEDTAVYYCARDTYYYGSGGFDYWGQGSRVTVSS
VL: DIQMTQSPSTLSASVGDRVTITCRASQSLSRWLAWYQQKPEKAPKLLIYKASSLESGVPSRFSGSGSGTEFTLTISTLQPDDFATYYCQQYKNYYSFGQGTKLEIKR
modifications: drug-linker A-07-A on a cysteine sulfhydryl group; LC-DAR1 ratio 0.820; drug-linker A-07-A on cysteine sulfhydryl groups after TCEP reduction; HC-DAR3 ratio 0.760, HC-DAR0 ratio 0.222
On to B7, for which the EC50 in assay [1] worked out at 0.0656 µg/mL; in assay [2], 0.125 µg/mL; in assay [3], 0.158 µg/mL.

B8: U1-59 (HER3 control antibody) (antibody, V domains shown)
VH: QVQLQQWGAGLLKPSETLSLTCAVYGGSFSGYYWSWIRQPPGKGLEWIGEINHSGSTNYNPSLKSRVTISVETSKNQFSLKLSSVTAADTAVYYCARDKWTWYFDLWGRGTLVTVSS
VL: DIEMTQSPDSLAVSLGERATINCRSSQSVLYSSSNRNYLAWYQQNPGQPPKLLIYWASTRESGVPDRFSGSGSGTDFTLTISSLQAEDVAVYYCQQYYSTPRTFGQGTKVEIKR
For the molecule B8, the EC50 in assay [5] turned out to be 0.426 µg/mL; in assay [6], 0.684 µg/mL.
